Earlier results, collected in PMC6601554.

Target: Mouse neonatal Fc receptor (FcRn) (UniProt Q61559)
Assay: not stated in this article

Sequence of UniProt Q61559 (Q61559 whole entry): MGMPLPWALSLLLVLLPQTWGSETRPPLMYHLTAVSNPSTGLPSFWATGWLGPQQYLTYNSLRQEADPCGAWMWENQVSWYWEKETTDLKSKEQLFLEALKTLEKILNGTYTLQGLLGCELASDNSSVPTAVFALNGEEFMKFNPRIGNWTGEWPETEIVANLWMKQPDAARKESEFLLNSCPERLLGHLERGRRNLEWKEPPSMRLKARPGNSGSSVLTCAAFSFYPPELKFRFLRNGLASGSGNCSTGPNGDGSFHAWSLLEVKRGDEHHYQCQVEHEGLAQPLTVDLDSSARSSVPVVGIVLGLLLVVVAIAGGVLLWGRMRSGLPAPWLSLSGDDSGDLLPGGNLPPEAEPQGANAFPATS

Kd (pH 6.0): 1.2 nM
Kd (pH 7.2): 7.4 nM
Substance: MST-HN human IgG1 (Abdeg; mutated humanized anti-hen egg lysozyme HuLys10) M252Y;S254T;T256E;H433K;N434F
